Experimental data taken from article PMC4288179, “Synergic interplay of the La motif, RRM1 and the interdomain linker of LARP6 in the recognition of collagen mRNA expands the RNA binding repertoire of the La module”.
Changes are numbered by the printed parent chain.

How the values were obtained:
Experiment in all cases: ITC; ITC: 20 mM Tris pH 7.25, 100 mM KCl, 5 mM MgCl2, 1 mM DTT, 298 K; protein titrated into RNA
HsLARP6(70-300) F102A = molecular target: T1, HsLARP6(70-300) F102A (Homo sapiens, UniProt Q9BRS8 70-300, F102A); conditions: protein: recombinant; tags: N-terminal His6 (TEV-cleavable); stem-loop with internal bulge
T1 sequence: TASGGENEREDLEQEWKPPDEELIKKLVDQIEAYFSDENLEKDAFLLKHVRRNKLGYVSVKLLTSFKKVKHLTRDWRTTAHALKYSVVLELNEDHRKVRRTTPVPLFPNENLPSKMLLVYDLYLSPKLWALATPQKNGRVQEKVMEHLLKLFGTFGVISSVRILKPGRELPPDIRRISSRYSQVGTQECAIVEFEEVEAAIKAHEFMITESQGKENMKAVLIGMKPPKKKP

HsLARP6(70-300) R245A = molecular target: T2, HsLARP6(70-300) R245A (Homo sapiens, UniProt Q9BRS8 70-300, R245A); conditions: protein: recombinant; tags: N-terminal His6 (TEV-cleavable); stem-loop with internal bulge
T2 sequence: T1 sequence with A33F, R176A

HsLARP6(70-300) K86A = molecular target: T3, HsLARP6(70-300) K86A (Homo sapiens, UniProt Q9BRS8 70-300, K86A); conditions: protein: recombinant; tags: N-terminal His6 (TEV-cleavable); stem-loop with internal bulge
T3 sequence: T1 sequence with K17A, A33F

HsLARP6(70-300) Q99A = molecular target: T4, HsLARP6(70-300) Q99A (Homo sapiens, UniProt Q9BRS8 70-300, Q99A); conditions: protein: recombinant; tags: N-terminal His6 (TEV-cleavable); stem-loop with internal bulge
T4 sequence: T1 sequence with Q30A, A33F

HsLARP6(70-295) = molecular target: T5, HsLARP6(70-295) (Homo sapiens, UniProt Q9BRS8 70-295); conditions: protein: recombinant; tags: N-terminal His6 (TEV-cleavable); stem-loop with internal bulge
T5 sequence: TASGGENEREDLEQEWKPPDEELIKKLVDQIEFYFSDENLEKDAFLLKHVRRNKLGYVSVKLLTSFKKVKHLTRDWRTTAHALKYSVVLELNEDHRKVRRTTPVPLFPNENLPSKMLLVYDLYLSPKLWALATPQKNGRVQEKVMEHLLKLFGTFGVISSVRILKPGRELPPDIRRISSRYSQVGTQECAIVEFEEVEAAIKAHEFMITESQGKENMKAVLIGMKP

HsLARP6(70-300) D112A = molecular target: T6, HsLARP6(70-300) D112A (Homo sapiens, UniProt Q9BRS8 70-300, D112A); conditions: protein: recombinant; tags: N-terminal His6 (TEV-cleavable); stem-loop with internal bulge
T6 sequence: T1 sequence with A33F, D43A

HsLARP6(70-300) N180R = molecular target: T7, HsLARP6(70-300) N180R (Homo sapiens, UniProt Q9BRS8 70-300, N180R); conditions: protein: recombinant; tags: N-terminal His6 (TEV-cleavable); stem-loop with internal bulge
T7 sequence: T1 sequence with A33F, N111R

[1] = molecular target: T8, HsLARP6 La module (70-300) (Homo sapiens, UniProt Q9BRS8 70-300); conditions: protein: recombinant; tags: N-terminal His6, TEV-cleaved for initial ITC; stem-loop with internal bulge
T8 sequence: T1 sequence with A33F

CCACAAAGAGUCUACAUGUCUAGGGUCUAGACAUGUUCAGCUUUGUGG (structured_RNA) [48 nt RNA (collagen alpha1(I) 5' UTR SL)]
binding result (HsLARP6(70-300) F102A): no binding
Kd (HsLARP6(70-300) R245A): 36 nM
Kd (HsLARP6(70-300) K86A): 77 nM
binding result (HsLARP6(70-300) Q99A): no binding
Kd (HsLARP6(70-295)): 77 nM
Kd (HsLARP6(70-300) D112A): 172 nM
Kd (HsLARP6(70-300) N180R): 32 nM
Kd [1]: 48 nM
